Measured values as given in patent US20260022175A1 (Chugai, published 2026).
Positions count from the first letter of the chain named. Like-named read-outs stand apart in the source and are kept apart here.

Key:
[1] = molecular target: T1, human FcγRIIb extracellular domain with C-terminal His-tag (human, UniProt P31994 43-217); experiment: SPR; FcγRIIb bound amount per unit captured Ab
T1 construct: extracellular domain; also called hFcγR IIb
T1 sequence (looked up): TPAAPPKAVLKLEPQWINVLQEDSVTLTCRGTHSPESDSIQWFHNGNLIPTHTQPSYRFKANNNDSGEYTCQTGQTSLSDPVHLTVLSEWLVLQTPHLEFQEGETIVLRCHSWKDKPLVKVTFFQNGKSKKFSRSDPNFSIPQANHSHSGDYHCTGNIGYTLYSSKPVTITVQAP

[2] = molecular target: T2, human FcγRIa extracellular domain with C-terminal His-tag (human, UniProt P12314 16-292); experiment: SPR Biacore T200, Ab captured via Fab-kappa, pH 7.4, 25C;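 also: each FcγR flowed as analyte over the captured antibodies, KD derived by 1:1 Langmuir or steady-state affinity fitting depending on the receptor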
T2 construct: extracellular domain; also called hFcγR Ia; hFcγRIa
Experimental: (§1) The interaction between the generated antibodies and human FcγRs was analyzed using Biacore T200. 50 mM Na-Phosphate, 150 mM NaCl, 0.05% Tween20 (pH 7.4) was used as the running buffer, and the assay was performed at 25° C. For the sensor chip, Series S SA (GE Healthcare) chips onto which CaptureSelect Human Fab-kappa Kinetics Biotin Conjugate (Thermo Fisher Scientific) was immobilized were used. The antibodies of interest were captured onto these chips and each FcγR diluted in the running buffer was allowed to interact with them. Chips were regenerated with 10 mM Glycine-HCl (pH 1.5) and 25 mM NaOH, and assay was performed by repeatedly capturing antibodies. The dissociation constants KD (mol/L) for FcγRs of each antibody were calculated using Biacore T200 Evaluation Software 2.0, and using the 1:1 Langmuir binding model for FcγRIa and FcγRIIIa and the steady state affinity model for FcγRIIa. For FcγRIIb, the binding amount of FcγRIIb per unit amount of antibody was calculated by correcting the binding amount of FcγRIIb obtained from the sensorgram obtained by the measurement with the amount of antibody captured onto the chip surface.

[3] = molecular target: T3, human FcγRIIa H allotype extracellular domain with C-terminal His-tag (human, UniProt P12318 34-217); experiment: as above
T3 construct: extracellular domain; also called hFcγR IIa H
T3 sequence (looked up): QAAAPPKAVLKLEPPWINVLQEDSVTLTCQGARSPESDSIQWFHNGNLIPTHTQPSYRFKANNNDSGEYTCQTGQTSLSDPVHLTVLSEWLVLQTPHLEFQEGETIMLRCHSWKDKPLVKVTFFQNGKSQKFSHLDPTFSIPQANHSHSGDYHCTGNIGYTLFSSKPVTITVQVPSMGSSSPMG
Experimental: as §1

[4] = molecular target: T4, human FcγRIIa R allotype extracellular domain with C-terminal His-tag (human, UniProt P12318 34-217); experiment: as above
T4 construct: extracellular domain; also called hFcγR IIa R
T4 sequence (looked up): T3 sequence (looked up) with H134R
Experimental: as §1

human FcRn [5] = molecular target: T5, human FcRn (human, UniProt P55899 24-290; P61769 21-119); experiment: SPR Biacore T200, Ab captured via Fab-kappa, pH 6.0, steady state
T5 construct: Prepared by the method of WO 2010/107110; also called hFcRn

[6] = molecular target: T6, human FcγRIIIa V allotype extracellular domain with C-terminal His-tag (human, UniProt P08637 17-208); experiment: SPR Biacore T200, Ab captured via Fab-kappa, pH 7.4, 25C, steady state model
T6 construct: extracellular domain; also called hFcγR IIIa V
Experimental: as §1

[7] = molecular target: T1, human FcγRIIb extracellular domain with …; experiment: SPR; binding amount divided by that of 04H1389-G1m/04L1615-k0MT
[8] = molecular target: T2, human FcγRIa extracellular domain with …; experiment: SPR; KD of 04H1389-G1m/04L1615-k0MT divided by KD of variant
[9] = molecular target: T6, human FcγRIIIa V allotype extracellular …; experiment: as above
[10] = molecular target: T3, human FcγRIIa H allotype extracellular …; experiment: as above
human FcRn [11] = molecular target: T5, human FcRn; experiment: as above
[12] = molecular target: T4, human FcγRIIa R allotype extracellular …; experiment: as above
human CTLA4 [13] = molecular target: T7, human CTLA4 (human); experiment: SPR Biacore T200, 37C, antibody captured, no ATP; no ATP
T7 construct: also called hCTLA4; hCTLA4-His-BAP
Experimental: Biacore T200 was used to measure the binding of the generated antibodies to human CTLA4. 20 mM ACES (pH 7.4), 150 mM NaCl, 2 mM MgCl₂, 0.05% Tween 20 with ATP added to the desired concentration was used as the running buffer, and the assay was performed at 37° C. First, Protein G (CALBIOCHEM) was immobilized onto a Series S Sensor Chip CM3 (GE Healthcare), and the antibodies were captured by interacting an antibody solution prepared in an ATP-free running buffer with the chip. Next, by interacting with a human CTLA4 solution prepared in a running buffer containing ATP to the desired concentration, or a human CTLA4 solution prepared in a running buffer containing no ATP, the binding ability of the antibody to human CTLA4 in the presence or absence of ATP was evaluated. Chips were regenerated with 25 mM NaOH and 10 mM Glycine-HCl (pH 1.5), and assay was performed by repeatedly capturing antibodies. The dissociation constant of each antibody for CTLA4 was calculated using Biacore T200 Evaluation Software 2.0. Specifically, the binding rate constant ka (L/mol/s) and the dissociation rate constant kd (1/s) were calculated by global fitting of the sensorgrams obtained by the measurement, using a 1:1 Langmuir binding model. The dissociation constant KD (mol/L) was calculated from those values. Alternatively, the dissociation constant KD (mol/L) was calculated by the steady state model. […]

human CTLA4 [14] = molecular target: T7, human CTLA4; experiment: SPR Biacore T200, 37C, antibody captured, ATP 10 uM
Experimental: (§2) Biacore T200 was used to measure the binding of the generated antibodies to human CTLA4. 20 mM ACES (pH 7.4), 150 mM NaCl, 2 mM MgCl₂, 0.05% Tween 20 with ATP added to the desired concentration was used as the running buffer, and the assay was performed at 37° C. First, Protein G (CALBIOCHEM) was immobilized onto a Series S Sensor Chip CM3 (GE Healthcare), and the antibodies were captured by interacting an antibody solution prepared in an ATP-free running buffer with the chip. Next, by interacting with a human CTLA4 solution prepared in a running buffer containing ATP to the desired concentration, or a human CTLA4 solution prepared in a running buffer containing no ATP, the binding ability of the antibody to human CTLA4 in the presence or absence of ATP was evaluated. Chips were regenerated with 25 mM NaOH and 10 mM Glycine-HCl (pH 1.5), and assay was performed by repeatedly capturing antibodies. The dissociation constant of each antibody for CTLA4 was calculated using Biacore T200 Evaluation Software 2.0. Specifically, the binding rate constant ka (L/mol/s) and the dissociation rate constant kd (1/s) were calculated by global fitting of the sensorgrams obtained by the measurement, using a 1:1 Langmuir binding model. The dissociation constant KD (mol/L) was calculated from those values. Alternatively, the dissociation constant KD (mol/L) was calculated by the steady state model. In addition, the binding amount of CTLA4 per unit amount of antibody was calculated by correcting the amount of CTLA4 bound as calculated from the sensorgram obtained by the assay with the amount of antibody captured onto the chip surface.
(§3) The binding ability of the generated variants to human CTLA4 in the presence of ADP or AMP was evaluated by Biacore T200 and compared with the binding ability in the presence of ATP.

human CTLA4 [15] = molecular target: T7, human CTLA4; experiment: SPR Biacore T200, 37C, antibody captured, ADP 10 uM;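 also: antibodies held on a Protein G CM3 chip, human CTLA4 as analyte in ACES pH 7.4 buffer, rates from a global 1:1 Langmuir fit, Kd from rates or steady state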
human CTLA4 [16] = molecular target: T7, human CTLA4; experiment: SPR Biacore T200, 37C, antibody captured, AMP 10 uM
Experimental: as §2, §3

[17] = molecular target: T8, mouse CTLA4 extracellular region linked with a His-tag (mCTLA4-His) (mouse, UniProt P09793 36-161); experiment: SPR Biacore T200, 37C, antibody captured, ATP 100 uM
Experimental: as §2
(§4) Next, the binding ability of some variants to mouse CTLA4 and cynomolgus monkey CTLA4 was evaluated.

human CTLA4 [18] = molecular target: T7, human CTLA4; experiment: as above
Experimental: as §2, §4

[19] = molecular target: T9, cynomolgus monkey CTLA4 (CyCTLA4-His-BAP) (cynomolgus monkey); experiment: as above
Experimental: as §2, §4

[20] = molecular target: T8, mouse CTLA4 extracellular region linked …; experiment: SPR Biacore T200, 37C, antibody captured, ATP 10 uM
human CTLA4 [21] = molecular target: T7, human CTLA4; experiment: as above; remark: listed apart in the source
[22] = molecular target: T9, cynomolgus monkey CTLA4 …; experiment: as above
human CTLA4 [23] = molecular target: T7, human CTLA4; experiment: SPR Biacore T200, 37C, antibody captured, ATP 1 uM
Experimental: as §2

[24] = molecular target: T8, mouse CTLA4 extracellular region linked …; experiment: SPR Biacore T200, 37C, antibody captured, ATP 1 uM
Experimental: as §2, §4

human CTLA4 [25] = molecular target: T7, human CTLA4; experiment: SPR Biacore T200, 37C, antibody captured, ATP 1 uM; remark: listed apart in the source
Experimental: as §2, §4

[26] = molecular target: T9, cynomolgus monkey CTLA4 …; experiment: SPR Biacore T200, 37C, antibody captured, ATP 1 uM
Experimental: as §2, §4

human CTLA4 [27] = molecular target: T7, human CTLA4; experiment: SPR Biacore T200, 37C, antibody captured, ATP 10 uM; remark: listed apart in the source
Experimental: as §2

[28] = molecular target: T1, human FcγRIIb extracellular domain with …; experiment: SPR; FcγRIIb bound amount per unit captured Ab; remark: listed apart in the source
Experimental: (§5) The interaction between the generated antibodies and human FcγRs was analyzed by the following method using Biacore T200. 50 mM Na-Phosphate, 150 mM NaCl, 0.05% Tween20 (pH 7.4) was used as the running buffer, and the assay was performed at 25° C. For the sensor chips, Series S SA (GE Healthcare) chips onto which CaptureSelect Human Fab-lambda Kinetics Biotin Conjugate (Thermo Fisher Scientific) was immobilized were used. The antibodies of interest were captured onto these chips and each FcγR diluted in the running buffer was allowed to interact with them. Chips were regenerated with 10 mM Glycine-HCl (pH 1.5) and 25 mM NaOH, and assay was performed by repeatedly capturing antibodies. The dissociation constants KD (mol/L) for FcγRs of each antibody were calculated using Biacore T200 Evaluation Software 2.0, using the 1:1 Langmuir binding model for FcγRIa and FcγRIIIa and the steady state affinity model for FcγRIIa. For FcγRIIb, the binding amount of FcγRIIb per unit amount of antibody was calculated by correcting the binding amount of FcγRIIb obtained from the sensorgram obtained by the measurement with the amount of antibody captured onto the chip surface.

[29] = molecular target: T1, human FcγRIIb extracellular domain with …; experiment: SPR; binding amount divided by that of 04H1656-G1m/04L1610-lam1
[30] = molecular target: T6, human FcγRIIIa V allotype extracellular …; experiment: SPR Biacore T200, captured Ab, pH 7.4, steady state model
Experimental: as §5

[31] = molecular target: T2, human FcγRIa extracellular domain with …; experiment: SPR; KD of 04H1656-G1m/04L1610-lam1 divided by KD of variant
[32] = molecular target: T6, human FcγRIIIa V allotype extracellular …; experiment: as above
[33] = molecular target: T10, human FcγRIIIa F allotype extracellular domain with C-terminal His-tag (human, UniProt P08637 17-208); experiment: as above
T10 construct: extracellular domain; also called hFcγR IIIa F

[34] = molecular target: T3, human FcγRIIa H allotype extracellular …; experiment: as above
human FcRn [35] = molecular target: T5, human FcRn; experiment: as above
[36] = molecular target: T4, human FcγRIIa R allotype extracellular …; experiment: as above
[37] = molecular target: T2, human FcγRIa extracellular domain with …; experiment: SPR Biacore T200, captured Ab, pH 7.4
Experimental: as §5

[38] = molecular target: T10, human FcγRIIIa F allotype extracellular …; experiment: SPR Biacore T200, captured Ab, pH 7.4
Experimental: as §5

[39] = molecular target: T3, human FcγRIIa H allotype extracellular …; experiment: SPR Biacore T200, captured Ab, pH 7.4
Experimental: as §5

[40] = molecular target: T4, human FcγRIIa R allotype extracellular …; experiment: SPR Biacore T200, captured Ab, pH 7.4
Experimental: as §5

human FcRn [41] = molecular target: T5, human FcRn; experiment: SPR Biacore T200, captured Ab, pH 6.0, steady state
Experimental: The interaction between the generated antibodies and human FcRn was analyzed by the following method using Biacore T200. 50 mM Na-Phosphate, 150 mM NaCl, 0.05% Tween20 (pH 6.0) was used as the running buffer, and the assay was performed at 25° C. For the sensor chip, Series S SA (GE Healthcare) chips onto which CaptureSelect Human Fab-lambda Kinetics Biotin Conjugate (Thermo Fisher Scientific) was immobilized were used. The antibodies of interest were captured onto these chips and FcRn diluted in the running buffer was allowed to interact with them. Chips were regenerated with 10 mM Glycine-HCl (pH 1.5) and 25 mM NaOH, and assay was performed by repeatedly capturing antibodies. The dissociation constant for FcRn of each antibody was calculated using the steady state model, using Biacore T200 Evaluation Software 2.0.

T2 sequence (P12314 16-292): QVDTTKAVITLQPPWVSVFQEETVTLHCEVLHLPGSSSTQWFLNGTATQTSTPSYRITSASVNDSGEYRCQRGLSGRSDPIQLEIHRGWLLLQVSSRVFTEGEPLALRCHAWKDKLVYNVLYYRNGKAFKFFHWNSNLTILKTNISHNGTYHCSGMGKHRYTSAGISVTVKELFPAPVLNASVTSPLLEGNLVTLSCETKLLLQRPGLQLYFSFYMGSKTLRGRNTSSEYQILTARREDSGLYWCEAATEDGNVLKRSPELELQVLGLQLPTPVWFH
T7 sequence (chain, as listed by the source limits assumed): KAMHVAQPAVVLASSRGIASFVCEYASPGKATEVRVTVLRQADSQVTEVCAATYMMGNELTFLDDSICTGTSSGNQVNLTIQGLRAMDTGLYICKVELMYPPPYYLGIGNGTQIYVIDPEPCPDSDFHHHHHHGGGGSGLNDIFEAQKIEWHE
T6 sequence (P08637 17-208 F176V): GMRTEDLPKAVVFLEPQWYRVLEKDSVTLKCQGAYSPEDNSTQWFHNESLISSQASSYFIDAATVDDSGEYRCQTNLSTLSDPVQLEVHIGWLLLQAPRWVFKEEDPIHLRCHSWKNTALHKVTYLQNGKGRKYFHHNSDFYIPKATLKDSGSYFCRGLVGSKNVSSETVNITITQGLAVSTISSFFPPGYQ
T5 sequence (P55899 24-290 limits assumed, chain 1 of 2): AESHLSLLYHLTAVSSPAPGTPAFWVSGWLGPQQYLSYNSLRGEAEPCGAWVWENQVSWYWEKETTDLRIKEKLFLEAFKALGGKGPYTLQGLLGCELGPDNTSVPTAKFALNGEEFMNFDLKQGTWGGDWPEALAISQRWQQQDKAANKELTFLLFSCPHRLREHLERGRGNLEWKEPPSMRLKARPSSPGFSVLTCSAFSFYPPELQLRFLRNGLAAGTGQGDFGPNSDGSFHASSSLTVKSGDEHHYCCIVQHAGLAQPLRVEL
T5 sequence (P61769 21-119 limits assumed, chain 2 of 2): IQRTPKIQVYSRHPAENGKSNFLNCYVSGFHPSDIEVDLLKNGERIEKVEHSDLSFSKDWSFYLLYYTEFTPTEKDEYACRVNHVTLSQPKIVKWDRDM
T9 sequence (chain, as listed by the source limits assumed): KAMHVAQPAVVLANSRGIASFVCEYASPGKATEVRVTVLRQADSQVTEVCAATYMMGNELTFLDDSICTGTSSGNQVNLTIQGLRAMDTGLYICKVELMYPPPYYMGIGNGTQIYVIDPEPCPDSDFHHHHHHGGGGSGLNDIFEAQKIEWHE
T10 sequence (P08637 17-208): as the sequence (P08637 17-208 F176V) above, with V160F counted along it

B1: 04H1389-G1m/04L1615-k0MT (antibody, human IgG1, kappa)
heavy: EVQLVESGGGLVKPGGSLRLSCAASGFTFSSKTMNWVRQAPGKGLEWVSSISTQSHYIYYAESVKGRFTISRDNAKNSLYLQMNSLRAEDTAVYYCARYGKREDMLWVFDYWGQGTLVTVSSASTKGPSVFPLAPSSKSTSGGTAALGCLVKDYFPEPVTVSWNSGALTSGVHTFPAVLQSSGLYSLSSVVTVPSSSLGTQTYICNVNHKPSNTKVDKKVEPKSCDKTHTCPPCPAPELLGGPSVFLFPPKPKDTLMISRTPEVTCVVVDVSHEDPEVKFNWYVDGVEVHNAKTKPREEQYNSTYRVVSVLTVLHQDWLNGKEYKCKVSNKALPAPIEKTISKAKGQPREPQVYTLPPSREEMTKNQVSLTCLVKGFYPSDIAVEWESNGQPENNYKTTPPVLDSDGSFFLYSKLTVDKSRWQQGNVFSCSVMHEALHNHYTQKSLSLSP
light: DIVMTQSPLSLPVTPGEPASISCQGPSTGVGDYNYVHWYQQKPGQAPRLLIYFTSKKPSGVPDRFSGSGSGTDFTLKISRVEAEDVGVYYCQTYAAPLGPMFGQGTKLEIKRTVAAPSVFIFPPSDEQLKSGTASVVCLLNNFYPREAKVQWKVDNALQSGNSQESVTEQDSKDSTYSLSSTLTLSKADYEKHKVYACEVTHQGLSSPVTKSFNRGEC
notes: Homodimer used for comparison; also called 04H1389-G1m/04L16150k0MT
B1 showed a Binding amount [1] of 0.011, a Kd [2] of 0.045 nM and a Kd [3] of 1100 nM. It also gave a Kd [4] of 1500 nM, a Kd (human FcRn [5]) of 1300 nM and a Kd [6] of 910 nM. For the same binder, the Relative binding amount [7] was 1, the “Relative value to KD between G1m and hFcγRs” value [8] was 1 and the “Relative value to KD between G1m and hFcγRs” value [9] was 1. For the same binder, the “Relative value to KD between G1m and hFcγRs” value [10] was 1, the “Relative value to KD between G1m and hFcRn” value (human FcRn [11]) was 1 and the “Relative value to KD between G1m and hFcγRs” value [12] was 1.

B2: 04H1654-G1m/04L1610-lam1 (antibody, human IgG1, lambda)
heavy: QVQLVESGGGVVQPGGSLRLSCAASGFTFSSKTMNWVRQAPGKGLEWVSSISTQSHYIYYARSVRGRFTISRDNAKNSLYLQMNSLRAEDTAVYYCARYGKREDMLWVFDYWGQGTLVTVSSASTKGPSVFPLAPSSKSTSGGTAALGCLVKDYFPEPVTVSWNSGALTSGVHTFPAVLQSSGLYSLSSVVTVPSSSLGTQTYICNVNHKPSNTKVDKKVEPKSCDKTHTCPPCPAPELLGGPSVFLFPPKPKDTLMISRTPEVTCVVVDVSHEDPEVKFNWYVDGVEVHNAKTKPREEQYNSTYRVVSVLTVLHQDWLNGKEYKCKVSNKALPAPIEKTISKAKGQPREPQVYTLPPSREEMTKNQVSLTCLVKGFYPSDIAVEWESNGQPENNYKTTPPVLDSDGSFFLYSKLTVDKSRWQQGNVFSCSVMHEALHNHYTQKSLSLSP
light: QSALTQPPSASGSPGQSVTISCEGPSTGVGDYNWVHWYQQHPGKAPKLMIYFTSKKPSGVPDRFSGSKSGNTASLTVSGLQAEDEADYYCQTYAAPLGPMFGGGTKLTVLGQPKAAPSVTLFPPSSEELQANKATLVCLISDFYPGAVTVAWKADSSPVKAGVETTTPSKQSNNKYAASSYLSLTPEQWKSHRSYSCQVTHEGSTVEKTVAPTECS
Work on B2 yielded a Kd (human CTLA4 [13]) of 5300 nM, a Kd (human CTLA4 [14]) of 19 nM and a koff (human CTLA4 [14]) of 0.0014 s⁻¹. It also gave a kon (human CTLA4 [14]) of 71000 M⁻¹ s⁻¹, a Kd (human CTLA4 [15]) of 32 nM and a koff (human CTLA4 [15]) of 0.0028 s⁻¹. For the same binder, the kon (human CTLA4 [15]) was 88000 M⁻¹ s⁻¹, the Kd (human CTLA4 [16]) was 100 nM and the koff (human CTLA4 [16]) was 0.0089 s⁻¹. The kon (human CTLA4 [16]) was 89000 M⁻¹ s⁻¹, the Kd [17] was 10 nM and the Kd (human CTLA4 [18]) was 4.4 nM. It also gave a Kd [19] of 8.1 nM, a Kd [20] of 27 nM and a Kd (human CTLA4 [21]) of 15 nM. For the same binder, the Kd [22] was 28 nM, the Kd (human CTLA4 [23]) was 120 nM and the Kd [24] was 180 nM. The Kd (human CTLA4 [25]) was 110 nM, the Kd [26] was 180 nM and the Kd (human CTLA4 [27]) was 19 nM.

B3: 04H1656-G1m/04L1610-lam1 (antibody, human IgG1, lambda)
heavy: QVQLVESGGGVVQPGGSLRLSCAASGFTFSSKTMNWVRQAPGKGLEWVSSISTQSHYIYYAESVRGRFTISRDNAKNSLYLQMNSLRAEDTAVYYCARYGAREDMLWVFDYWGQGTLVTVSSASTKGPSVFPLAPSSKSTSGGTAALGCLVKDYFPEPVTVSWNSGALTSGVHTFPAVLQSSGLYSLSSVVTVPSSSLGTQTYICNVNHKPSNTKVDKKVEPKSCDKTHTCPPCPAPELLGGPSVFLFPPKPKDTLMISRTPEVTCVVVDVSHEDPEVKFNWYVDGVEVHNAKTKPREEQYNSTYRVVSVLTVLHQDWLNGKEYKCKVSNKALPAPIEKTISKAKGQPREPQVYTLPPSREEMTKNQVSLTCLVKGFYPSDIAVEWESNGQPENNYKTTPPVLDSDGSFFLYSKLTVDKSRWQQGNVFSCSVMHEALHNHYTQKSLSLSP
light: B2 light
B3 gave a Binding amount [28] of 0.008, a Relative binding amount [29] of 1 and a Kd [30] of 970 nM. For the same binder, the “Relative value to KD between G1m and hFcγRs” value [31] was 1, the “Relative value to KD between G1m and hFcγRs” value [32] was 1 and the “Relative value to KD between G1m and hFcγRs” value [33] was 1. For the same binder, the “Relative value to KD between G1m and hFcγRs” value [34] was 1, the “Relative value to KD between G1m and hFcRn” value (human FcRn [35]) was 1 and the “Relative value to KD between G1m and hFcγRs” value [36] was 1. It also gave a Kd [37] of 0.092 nM, a Kd [38] of 1000 nM and a Kd [39] of 1300 nM. The Kd [40] was 1600 nM and the Kd (human FcRn [41]) was 1700 nM.
